B1: LexAPa^CTD G91D (LexAPa C-terminal domain, Gly81 to Arg204, with the inactivating G91D mutation on the cleavage site) (domain or fragment, Pseudomonas aeruginosa (ATCC 27853), UniProt P37452 81-204, looked up)
chain: GLPVIGRVAADAPILAEQNIEESCRINPAFFNPRADYLLRVRGMSMKDIGILDGDLLAVHVTREARNGQVVVARIGEEVTVKRFKREGSKVWLLAENPEFAPIEVDLKEQELIIEGLSVGVIRR
B2: LexAPaS125A (full-length P. aeruginosa LexA carrying the S125A mutation in the catalytic dyad) (natural protein, Pseudomonas aeruginosa (ATCC 27853), UniProt P37452 1-204, looked up)
chain: MQKLTPRQAEILSFIKRCLEDHGFPPTRAEIAQELGFKSPNAAEEHLKALARKGAIEMTPGASRGIRIPGFEPHAANDDEGLPVIGRVAAGAPILAEQNIEESCRINPAFFNPRADYLLRVRGMAMKDIGILDGDLLAVHVTREARNGQVVVARIGEEVTVKRFKREGSKVWLLAENPEFAPIEVDLKEQELIIEGLSVGVIRR

Biological target: the molecule itself
Assay: SEC

Protein | stoichiometry N
B1 | 2
B2 | 2

From PMC11787620 (iScience, 2025)
